{"source": "IntAct's records for PubMed 21803990", "parents": {"B1": {"name": "ATP-dependent protease ATPase subunit HslU (Escherichia coli (strain K12)), P0A6H5 (parent)", "chain": "MSEMTPREIVSELDKHIIGQDNAKRSVAIALRNRWRRMQLNEELRHEVTPKNILMIGPTGVGKTEIARRLAKLANAPFIKVEATKFTEVGYVGKEVDSIIRDLTDAAVKMVRVQAIEKNRYRAEELAEERILDVLIPPAKNNWGQTEQQQEPSAARQAFRKKLREGQLDDKEIEIDLAAAPMGVEIMAPPGMEEMTSQLQSMFQNLGGQKQKARKLKIKDAMKLLIEEEAAKLVNPEELKQDAIDAVEQHGIVFIDEIDKICKRGESSGPDVSREGVQRDLLPLVEGCTVSTKHGMVKTDHILFIASGAFQIAKPSDLIPELQGRLPIRVELQALTTSDFERILTEPNASITVQYKALMATEGVNIEFTDSGIKRIAEAAWQVNESTENIGARRLHTVLERLMEEISYDASDLSGQNITIDADYVSKHLDALVADEDLSRFIL", "partner": "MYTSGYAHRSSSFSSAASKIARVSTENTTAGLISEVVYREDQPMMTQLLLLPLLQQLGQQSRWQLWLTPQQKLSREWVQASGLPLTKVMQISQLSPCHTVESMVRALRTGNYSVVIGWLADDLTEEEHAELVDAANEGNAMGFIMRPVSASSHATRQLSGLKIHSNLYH"}}, "data": [{"variants_of": "B1", "conditions": "with sula_ecoli sulA", "values": [{"variant": "E266Q", "effect of a mutation on the interaction": "increasing interaction"}, {"variant": "Y91F", "effect of a mutation on the interaction": "increasing interaction"}, {"variant": "Y408A", "effect of a mutation on the interaction": "increasing interaction"}]}, {"variants_of": "B1", "conditions": "with sula_ecoli sulA", "remark": "another data set of the same source", "values": [{"variant": "G90D", "effect of a mutation on the interaction": "increasing interaction"}]}]}
